Consider one molecule from paper PMC3010429.

The data set addresses hMutSα (hMSH2-hMSH6) WT recombinant (Homo sapiens, UniProt P43246;P52701 1-934;1-1360). Put plainly: EMSA, supershift. A general note: A gel shift assay detects complexes by their altered migration in electrophoresis.

hMutSα (hMSH2-hMSH6) WT recombinant, sequence (P43246 whole entry, chain 1 of 2): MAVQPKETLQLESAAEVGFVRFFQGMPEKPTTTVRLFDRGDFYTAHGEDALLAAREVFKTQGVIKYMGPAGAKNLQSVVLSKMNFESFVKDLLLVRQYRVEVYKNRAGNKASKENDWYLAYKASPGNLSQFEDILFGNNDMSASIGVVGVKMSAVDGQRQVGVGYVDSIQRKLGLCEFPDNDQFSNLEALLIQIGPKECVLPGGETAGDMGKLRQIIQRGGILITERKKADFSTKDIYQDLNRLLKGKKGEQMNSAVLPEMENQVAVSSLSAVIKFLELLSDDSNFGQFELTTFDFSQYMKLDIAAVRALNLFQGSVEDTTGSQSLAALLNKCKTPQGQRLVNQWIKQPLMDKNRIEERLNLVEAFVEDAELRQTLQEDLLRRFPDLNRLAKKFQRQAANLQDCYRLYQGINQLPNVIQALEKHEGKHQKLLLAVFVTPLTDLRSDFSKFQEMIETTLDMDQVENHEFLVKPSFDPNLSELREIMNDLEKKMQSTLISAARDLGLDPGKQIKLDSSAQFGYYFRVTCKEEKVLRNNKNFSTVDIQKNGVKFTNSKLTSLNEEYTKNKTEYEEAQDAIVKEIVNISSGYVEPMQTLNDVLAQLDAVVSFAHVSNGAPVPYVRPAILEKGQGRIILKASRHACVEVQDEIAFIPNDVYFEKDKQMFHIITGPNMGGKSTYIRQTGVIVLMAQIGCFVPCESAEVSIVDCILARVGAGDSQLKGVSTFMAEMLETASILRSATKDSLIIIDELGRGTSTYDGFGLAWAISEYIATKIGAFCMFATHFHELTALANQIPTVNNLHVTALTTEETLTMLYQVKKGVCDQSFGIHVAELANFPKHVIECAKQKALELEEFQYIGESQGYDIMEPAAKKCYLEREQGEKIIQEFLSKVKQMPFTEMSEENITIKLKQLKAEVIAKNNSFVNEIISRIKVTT
hMutSα (hMSH2-hMSH6) WT recombinant, sequence (P52701 whole entry, chain 2 of 2): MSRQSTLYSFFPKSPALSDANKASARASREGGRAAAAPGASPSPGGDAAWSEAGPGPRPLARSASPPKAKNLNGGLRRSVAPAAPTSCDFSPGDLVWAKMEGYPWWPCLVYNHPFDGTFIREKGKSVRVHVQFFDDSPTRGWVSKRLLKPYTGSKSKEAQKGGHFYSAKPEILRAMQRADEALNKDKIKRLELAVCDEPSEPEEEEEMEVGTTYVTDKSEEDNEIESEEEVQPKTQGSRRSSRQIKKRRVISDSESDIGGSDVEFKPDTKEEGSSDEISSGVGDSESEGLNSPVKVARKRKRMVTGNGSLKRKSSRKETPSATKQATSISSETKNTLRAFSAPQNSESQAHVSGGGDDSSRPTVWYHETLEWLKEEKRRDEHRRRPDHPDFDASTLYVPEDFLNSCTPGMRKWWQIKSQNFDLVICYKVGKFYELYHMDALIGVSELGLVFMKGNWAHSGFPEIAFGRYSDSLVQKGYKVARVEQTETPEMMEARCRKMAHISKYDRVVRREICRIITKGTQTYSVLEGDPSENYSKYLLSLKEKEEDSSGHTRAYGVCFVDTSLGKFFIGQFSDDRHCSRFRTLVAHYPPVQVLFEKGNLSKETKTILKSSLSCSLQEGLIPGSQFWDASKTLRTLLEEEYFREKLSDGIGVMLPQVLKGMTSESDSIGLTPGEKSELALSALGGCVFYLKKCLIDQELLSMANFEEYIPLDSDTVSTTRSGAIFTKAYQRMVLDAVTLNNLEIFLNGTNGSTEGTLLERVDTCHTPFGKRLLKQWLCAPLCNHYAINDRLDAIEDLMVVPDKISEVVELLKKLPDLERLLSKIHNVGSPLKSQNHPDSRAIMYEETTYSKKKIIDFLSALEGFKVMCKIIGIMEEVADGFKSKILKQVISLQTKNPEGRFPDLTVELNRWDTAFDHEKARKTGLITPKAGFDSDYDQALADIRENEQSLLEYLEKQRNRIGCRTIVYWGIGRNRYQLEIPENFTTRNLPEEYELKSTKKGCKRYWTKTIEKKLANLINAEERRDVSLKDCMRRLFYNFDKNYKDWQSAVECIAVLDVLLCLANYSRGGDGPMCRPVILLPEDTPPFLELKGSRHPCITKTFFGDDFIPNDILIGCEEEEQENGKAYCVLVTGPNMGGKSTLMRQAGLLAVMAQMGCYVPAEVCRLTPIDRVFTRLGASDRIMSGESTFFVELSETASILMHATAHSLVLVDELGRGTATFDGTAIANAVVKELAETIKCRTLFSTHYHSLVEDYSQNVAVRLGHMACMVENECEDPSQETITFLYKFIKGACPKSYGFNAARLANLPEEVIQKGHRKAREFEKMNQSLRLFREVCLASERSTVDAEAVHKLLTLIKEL

B1: G:T 69mer (dsDNA)
DNA 1: AATTCACGGAATATAAGCTGGTGGTGGTGGGCGCCGGCGGTTGGGCAAGAGTGCGCTGACCATCCAGG
DNA 2: CCTGGATGGTCAGCGCACTCTTGCCCAACCGTCGGCGCCCACCACCACCAGCTTATATTCCGTGAATT
B1: the binding result is “binds”.
